Data set [1] has as its target T1, CTNNA1 (catenin alpha 1) (UniProt P35221 2-906). Description: MST; MST: 50 nM labeled CTNNA1 in 10 mM PBS pH 7.4, EA2 0.00153-50 uM in 10 mM PBST (0.05% Tween-20) pH 7.4; temperature not stated. The following applies: tags: RED-NHS dye label; predicted mFold secondary structure.
The target in data set [2] is T1, CTNNA1 (catenin alpha 1). Description: MST; no antibody (control of the antibody competition); MST: 50 nM labeled CTNNA1 in 10 mM PBS pH 7.4, EA2 0.00153-50 uM in 10 mM PBST (0.05% Tween-20) pH 7.4; temperature not stated. The following applies: tags: RED-NHS dye label; predicted mFold secondary structure.

The text below walks through data of paper PMC12120766, “Paclitaxel/Luteolin Coloaded Dual‐Functional Liposomes for Esophageal Cancer Therapy”.

In general, Kd refers to the equilibrium constant for the complex coming apart.

T1 sequence (P35221 2-906): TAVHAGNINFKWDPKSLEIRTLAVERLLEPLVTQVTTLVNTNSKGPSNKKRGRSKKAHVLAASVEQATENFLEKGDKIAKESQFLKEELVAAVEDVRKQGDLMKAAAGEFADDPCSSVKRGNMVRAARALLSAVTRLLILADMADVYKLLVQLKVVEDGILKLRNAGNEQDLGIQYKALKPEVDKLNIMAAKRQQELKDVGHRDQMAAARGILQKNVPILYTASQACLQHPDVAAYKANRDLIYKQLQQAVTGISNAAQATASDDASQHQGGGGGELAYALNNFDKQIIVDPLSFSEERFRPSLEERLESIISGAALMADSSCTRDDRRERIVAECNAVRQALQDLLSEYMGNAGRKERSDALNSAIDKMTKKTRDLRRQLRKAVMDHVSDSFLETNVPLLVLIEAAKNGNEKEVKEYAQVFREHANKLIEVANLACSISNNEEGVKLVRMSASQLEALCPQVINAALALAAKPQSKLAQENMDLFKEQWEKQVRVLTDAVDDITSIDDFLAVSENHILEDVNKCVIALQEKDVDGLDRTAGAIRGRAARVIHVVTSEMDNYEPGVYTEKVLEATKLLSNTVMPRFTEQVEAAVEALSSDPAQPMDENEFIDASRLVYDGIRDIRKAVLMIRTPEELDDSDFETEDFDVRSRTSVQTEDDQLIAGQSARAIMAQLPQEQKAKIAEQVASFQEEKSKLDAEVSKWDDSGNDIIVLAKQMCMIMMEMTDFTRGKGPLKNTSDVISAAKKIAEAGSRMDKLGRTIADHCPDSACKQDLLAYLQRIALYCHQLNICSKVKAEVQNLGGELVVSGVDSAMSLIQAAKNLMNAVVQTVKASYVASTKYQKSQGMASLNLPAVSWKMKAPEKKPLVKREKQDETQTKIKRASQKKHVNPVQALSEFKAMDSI

B1: EA2 (ssDNA)
DNA: AGCCTAAGCCTGTCCAGGAATCGTGCAGCCATAGCCTAAGCCTGTCCAGGAATCGATGGCTTAGTGGCACGATTAGGTC
Take B1: the Kd in data set [1] is 2070 ± 600 nM; in data set [2], 2300 ± 600 nM.
